Experimental data reported in patent US20170198056A1 (MEDICINAL CHEMISTRY PHARMACEUTICALS, published 2017).

B1: Monoclonal antibody SN-102 (antibody, V domains shown)
VH: EVQLQQSGAELVKPGASVKLSCTASGFNIKDYYMHWVKQRTEQGLEWIGRIDPEDGETKYAPKFQGKAIITADTSSNTAYLQLSSLTSEDTAVYYCVHFYYGYDVGRGYWGQGTTLTVSS
VL: DIVMSQSPSSLAVSVGEKVTMSCKSSQSLLYSSNQKNYLAWYQQKPGQSPKLLIYWASTRESGVPDRFTGSGSGTDFTLTISSVKAEDLAVYYCQQYYSYTFGGGTKLEIK
notes: Mouse monoclonal antibody from a hybridoma; it was purified on Protein G and detected with anti-mouse IgG; The array assay used culture supernatant diluted 10-fold; also called antibody of hybridoma strain 3C10-E11
B2: Monoclonal antibody SN-101 (antibody, V domains shown)
VH: EVNLEESGGGLVQPGGSMKLSCVASGFTFSNYWMNWVRQSPEKGLEWVAQIRLKSDNYATHYAESVKGRFTISRDDSKSSVYLQMNNLRAEDTGIYYCTGGVFDYWGQGTTLTVSS
VL: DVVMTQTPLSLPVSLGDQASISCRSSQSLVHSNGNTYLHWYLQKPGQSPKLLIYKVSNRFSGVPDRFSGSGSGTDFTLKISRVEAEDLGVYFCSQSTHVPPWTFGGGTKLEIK
notes: Mouse monoclonal antibody from a hybridoma; it was purified on Protein G and detected with anti-mouse IgG; The array assay used culture supernatant diluted 10-fold; also called antibody of hybridoma strain 3A9-4B1 (NITE BP-01845)

Molecular target: T1, MUC1 expressed on breast cancer cells (OCUB-M, MCF-7) (human, UniProt P15941 24-1255, native O-glycosylation of the cancer cells, not defined)
T1 construct: whole, on cells; OCUB-M cells were fixed and treated with Triton X-100; MCF-7 cells were fixed with formaldehyde; also called MUC1 expressing cells
Experiment: immunofluorescence staining of fixed OCUB-M breast cancer cells, 10 ug/mL antibody

T1 sequence (P15941 24-1255): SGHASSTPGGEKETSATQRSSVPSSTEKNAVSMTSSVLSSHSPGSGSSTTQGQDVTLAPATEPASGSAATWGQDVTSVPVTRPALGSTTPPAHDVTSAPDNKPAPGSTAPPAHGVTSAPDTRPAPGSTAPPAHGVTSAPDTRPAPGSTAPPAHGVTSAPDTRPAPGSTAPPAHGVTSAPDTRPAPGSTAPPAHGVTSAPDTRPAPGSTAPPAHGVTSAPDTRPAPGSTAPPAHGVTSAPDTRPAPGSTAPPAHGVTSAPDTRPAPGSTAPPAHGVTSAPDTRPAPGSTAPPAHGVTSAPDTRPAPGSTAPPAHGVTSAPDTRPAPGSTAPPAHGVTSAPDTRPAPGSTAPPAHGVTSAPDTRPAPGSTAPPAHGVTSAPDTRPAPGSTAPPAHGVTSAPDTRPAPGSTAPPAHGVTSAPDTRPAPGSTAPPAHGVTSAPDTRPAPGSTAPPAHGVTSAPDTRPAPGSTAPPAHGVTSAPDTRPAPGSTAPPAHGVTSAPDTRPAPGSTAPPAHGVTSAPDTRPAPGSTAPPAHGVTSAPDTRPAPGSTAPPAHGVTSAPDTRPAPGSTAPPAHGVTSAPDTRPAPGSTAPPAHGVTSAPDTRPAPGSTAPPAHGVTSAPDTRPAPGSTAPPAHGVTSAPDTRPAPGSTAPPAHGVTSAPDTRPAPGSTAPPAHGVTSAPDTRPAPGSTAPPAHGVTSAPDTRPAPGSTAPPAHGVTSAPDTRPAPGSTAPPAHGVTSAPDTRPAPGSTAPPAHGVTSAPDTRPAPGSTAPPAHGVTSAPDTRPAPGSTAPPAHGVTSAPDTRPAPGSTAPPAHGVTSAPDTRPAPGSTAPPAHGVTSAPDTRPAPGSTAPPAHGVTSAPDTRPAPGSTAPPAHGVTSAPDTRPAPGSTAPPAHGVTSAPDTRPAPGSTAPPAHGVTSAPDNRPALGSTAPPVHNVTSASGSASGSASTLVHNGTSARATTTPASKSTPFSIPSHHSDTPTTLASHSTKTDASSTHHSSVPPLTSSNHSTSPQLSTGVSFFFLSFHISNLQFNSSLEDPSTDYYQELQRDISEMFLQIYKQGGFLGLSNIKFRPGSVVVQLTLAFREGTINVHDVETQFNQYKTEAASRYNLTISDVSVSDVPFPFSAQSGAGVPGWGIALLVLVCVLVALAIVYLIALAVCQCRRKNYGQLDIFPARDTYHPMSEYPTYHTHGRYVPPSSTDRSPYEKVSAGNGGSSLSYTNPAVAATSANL

Binder | binding result
B1 | binds
B2 | binds
